B1: His–Flag-tagged Mus musculus TOP6BL (natural protein, UniProt J3QMY9 1-579, looked up)
chain: MERTALAVCEILRYLIIHWKCEAGTAKGTLLDGQLVISIEALRSKHLPDSLHCIITIASTRSVYGGLNFKKFLQEIQPALPRLSAKLALASEEGGRSQDASGIAPCQVTFEVDENSQSLMTDCLVIKHFLRKIIIVHHKLKFSFSVAVNGTLSAETFGAENEPTLRLDNGVTLVVGFQRYVSKPKLNWSEAHCSRIHPVLGHPAPLFIPDAKADTGLLGELTLTPAAALCPSPKGFSSQLCRISSVSIFLYGPLGLPLLSSDQDQPSTAVFRDTSYFIDWKKYNLFMVPNLDLNLDTQSVLPDVNYKAESPEGNQSQNMNAQGPALLLFLFVDFQSDVPVQQAKIWGLHTLLTAHLSAILSESRSTVQQSIQSAVDQVWQLYHHDAKTQQRLQASLSVAVNSIMSVLTGSTRSSFRKTCLQALEAADTQEFGVKLHRIFYDITQHQFLKHCSCDTEQHLTPEKNISAQNTKDQHKNIAQEFPEESIGQAENKRPKRGSPNHGREESRVLGSARDRSPPKSATRDRELTEVSLTARGSQTQAAHGRAQAAEAASPAGGLEDLWLQEVSNLSEWLNPGHRS
notes: TOP6BL (topo VIB-like subunit), Mus musculus; also called His–mTOP6BL–Flag; mTOP6BL; not shown: His, N-terminal, kept; Flag, C-terminal, kept

Experiments:
[1] = biological target: T1, MBP-SPO11;TOP6BL (Mus musculus;Mus musculus, UniProt Q9WTK8;J3QMY9 1-396;1-579, |); assay: EMSA; 5 mM EDTA, 0.1 nM DNA; EMSA: 25 mM Tris-HCl pH 7.5, 7.5% glycerol, 50 mM NaCl, 2 mM DTT, 5 mM EDTA, 1 mg/ml BSA, 37 C, 30 min; 0.1 nM labelled hairpin or 100 ng plasmid in 20 µl; details: protein: recombinant;recombinant; tags: MBP;His-Flag; copies: 1;1; label: 5' 32P; hairpin, 2-nt 5' overhang
T1 sequence 1: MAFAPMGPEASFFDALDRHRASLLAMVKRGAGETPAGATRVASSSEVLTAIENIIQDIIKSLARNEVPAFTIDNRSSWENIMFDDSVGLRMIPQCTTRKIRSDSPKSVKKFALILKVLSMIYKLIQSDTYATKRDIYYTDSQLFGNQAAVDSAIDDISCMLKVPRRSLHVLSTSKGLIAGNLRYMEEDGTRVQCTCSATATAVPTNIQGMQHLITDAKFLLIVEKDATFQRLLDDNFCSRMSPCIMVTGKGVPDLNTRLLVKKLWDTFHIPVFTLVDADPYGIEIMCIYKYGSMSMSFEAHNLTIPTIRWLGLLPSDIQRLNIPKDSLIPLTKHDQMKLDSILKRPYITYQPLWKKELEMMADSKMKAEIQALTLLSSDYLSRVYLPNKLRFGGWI
T1 sequence 2: B1 chain

[2] = biological target: T2, MBP-tagged Mus musculus SPO11 (Mus musculus, UniProt Q9WTK8 1-396); assay: SEC-MALS; co-expressed and co-purified MBP–SPO11 and His–Flag TOP6BL complex (Ni-NTA, amylose, Superdex 200); Superdex 200 increase 10/300 GL; 25 mM HEPES-NaOH pH 7.5, 500 mM NaCl, 10% glycerol, 5 mM EDTA, 2 mM DTT; details: both partners purified
T2 construct: SPO11, Mus musculus; expected molecular mass of MBP–SPO11 87.4 kDa; active-site tyrosines Y137 and Y138; also called MBP–SPO11; mouse SPO11; source: baculovirus-infected Sf9 insect cells, purified (amylose, Superdex 200, cation exchange); for the complex co-expressed with TOP6BL and purified (Ni-NTA, amylose, Superdex 200); not shown: MBP, N-terminal, kept
T2 sequence (looked up): T1 sequence 1

Binder	binding result [1]	stoichiometry N [2]
TAGCAATGTAATCGTCTATGACGTTAACGTCATAGACGATTACATTGC (structured_DNA) [cb957 hairpin, 25 bp, 2-nt 5' overhang]	binds	–
B1	–	1
